Assays:
[1] = target: human OX40 (CD134), full length, expressed on cells (activated human T cells; EL4-OX40 and CHO-OX40 transfectants) (human) (UniProt P43489); assay: flow cytometry titration on activated human T cells
[2] = target: human OX40 extracellular domain fused to the Fc portion of human IgG1 (hOX40:hFc) (human); assay: ELISA, OX40L-FLAG binding to coated hOX40:hFc
[3] = target: recombinant human OX40:mFc fusion protein (Alexis Corporation) (human) (UniProt P43489); assay: cross-blocking ELISA, hOX40:mFc pre-incubated with L106; competitor: coated 112Y131
[4] = target: human OX40 (CD134), full length, expressed on cells (activated human T cells; EL4-OX40 and CHO-OX40 transfectants) (human) (UniProt P43489); assay: flow cytometry, OX40L-FLAG binding to activated human T cells
[5] = target: human OX40 extracellular domain fused to the Fc portion of human IgG1 (hOX40:hFc) (human); assay: ELISA, blocking of OX40L-FLAG binding to coated hOX40:hFc
[6] = target: human OX40 (CD134), full length, expressed on cells (activated human T cells; EL4-OX40 and CHO-OX40 transfectants) (human) (UniProt P43489); assay: flow cytometry, blocking of OX40L-FLAG binding to activated human T cells
[7] = target: recombinant human OX40:mFc fusion protein (Alexis Corporation) (human) (UniProt P43489); assay: cross-blocking ELISA, hOX40:mFc pre-incubated with L106; competitor: coated 112V8

human OX40 (CD134), full length, expressed on cells (activated human T cells; EL4-OX40 and CHO-OX40 transfectants) (human), sequence (P43489 29-277 limits assumed): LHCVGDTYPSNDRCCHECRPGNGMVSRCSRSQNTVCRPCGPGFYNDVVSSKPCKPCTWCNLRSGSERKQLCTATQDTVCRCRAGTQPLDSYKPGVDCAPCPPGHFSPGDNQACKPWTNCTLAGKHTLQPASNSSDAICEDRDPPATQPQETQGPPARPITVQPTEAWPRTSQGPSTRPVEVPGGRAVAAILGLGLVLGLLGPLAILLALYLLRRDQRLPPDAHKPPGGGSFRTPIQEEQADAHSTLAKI
human OX40 extracellular domain fused to the Fc portion of human IgG1 (hOX40:hFc) (human), sequence (chain, as listed by the source limits assumed): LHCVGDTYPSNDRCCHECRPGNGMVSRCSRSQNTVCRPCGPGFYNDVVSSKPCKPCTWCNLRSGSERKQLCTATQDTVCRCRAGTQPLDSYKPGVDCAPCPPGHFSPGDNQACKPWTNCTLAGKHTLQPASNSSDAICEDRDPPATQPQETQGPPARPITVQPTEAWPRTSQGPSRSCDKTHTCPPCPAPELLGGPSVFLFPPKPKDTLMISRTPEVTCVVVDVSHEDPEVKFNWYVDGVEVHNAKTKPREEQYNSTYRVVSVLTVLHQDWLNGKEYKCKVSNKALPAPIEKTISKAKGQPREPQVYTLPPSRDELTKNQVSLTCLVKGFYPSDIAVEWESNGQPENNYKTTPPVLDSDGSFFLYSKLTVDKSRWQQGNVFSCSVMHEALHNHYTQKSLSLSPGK
recombinant human OX40:mFc fusion protein (Alexis Corporation) (human), sequence (P43489 29-214): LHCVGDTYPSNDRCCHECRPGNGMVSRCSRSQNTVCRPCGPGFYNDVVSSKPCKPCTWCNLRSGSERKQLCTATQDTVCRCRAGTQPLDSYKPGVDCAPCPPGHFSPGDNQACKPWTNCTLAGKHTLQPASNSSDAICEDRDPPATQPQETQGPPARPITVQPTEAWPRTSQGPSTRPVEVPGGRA

- BMAX Geo Mean (geometric mean fluorescence) [1]: 52
- Kd [1]: 1 nM
- percent inhibition of OX40L binding [2]: 95%
- percent reduction of binding [3]: 10%
- percent inhibition of OX40L binding [4]: 60%
- IC50 [5]: 0.982 µg/mL
- IC50 [6]: 60.9 µg/mL
- percent reduction of binding [7]: 10%
Substance: mouse anti-human OX40 antibody L106 (Becton Dickinson, catalog number 340420)

Source: patent US20170081417A1
